Patent US20250353900A1 (HUMABS BIOMED, published 2025)

How the values were obtained:
[1] = biological target: HBV HBsAg of genotype C on engineered hepatitis D virus (hepatitis B virus genotype C); experiment: cell-based or functional assay
[2] = biological target: HBV HBsAg of genotype A on engineered hepatitis D virus (hepatitis B virus genotype A); experiment: cell-based or functional assay
[3] = biological target: T1, Human complement component C1q (human, UniProt P02745 23-245; P02746 28-253; P02747 29-245); experiment: BLI (Octet), IgG captured on anti-human Fab (CH1) sensors
T1 construct: also called human complement protein C1q

[4] = biological target: T2, Recombinant human FcγRIIIa (V158) (human, UniProt P08637 17-208); experiment: BLI (Octet), His-tagged FcγR on anti-penta-His sensors, mAb cross-linked with anti-F(ab')2
T2 construct: also called FcγRIIIa allele V158

[5] = biological target: T3, Recombinant human FcγRIIIa (F158) (human, UniProt P08637 17-208); experiment: as above
T3 construct: also called FcγRIIIa allele F158; FcγRIIAa allele F158

[6] = biological target: T4, Recombinant human FcγRIIa (H131) (human, UniProt P12318 34-218); experiment: as above
T4 construct: also called FcγRIIa allele H131
T4 sequence (looked up): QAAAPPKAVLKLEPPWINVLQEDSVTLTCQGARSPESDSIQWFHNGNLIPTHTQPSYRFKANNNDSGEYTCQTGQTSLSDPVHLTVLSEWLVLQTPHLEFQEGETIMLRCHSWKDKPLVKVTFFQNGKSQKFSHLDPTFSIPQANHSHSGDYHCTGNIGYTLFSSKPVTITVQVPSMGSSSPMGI

T2 sequence (P08637 17-208 F176V limits assumed): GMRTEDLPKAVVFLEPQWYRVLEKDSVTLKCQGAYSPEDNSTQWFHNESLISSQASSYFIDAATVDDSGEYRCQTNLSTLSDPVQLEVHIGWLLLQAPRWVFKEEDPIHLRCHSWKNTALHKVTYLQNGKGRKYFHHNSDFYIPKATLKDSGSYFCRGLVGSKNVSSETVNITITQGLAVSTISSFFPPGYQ
T3 sequence (P08637 17-208 limits assumed): as the sequence (P08637 17-208 F176V limits assumed) above, with V160F counted along it
T1 sequence (P02745 23-245 limits assumed, chain 1 of 3): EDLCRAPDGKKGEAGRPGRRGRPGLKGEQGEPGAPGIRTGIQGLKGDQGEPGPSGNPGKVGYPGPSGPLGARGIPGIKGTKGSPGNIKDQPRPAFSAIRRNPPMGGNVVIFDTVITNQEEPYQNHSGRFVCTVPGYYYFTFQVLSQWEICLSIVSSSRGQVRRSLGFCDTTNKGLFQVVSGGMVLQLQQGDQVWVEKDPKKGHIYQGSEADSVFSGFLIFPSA
T1 sequence (P02746 28-253 limits assumed, chain 2 of 3): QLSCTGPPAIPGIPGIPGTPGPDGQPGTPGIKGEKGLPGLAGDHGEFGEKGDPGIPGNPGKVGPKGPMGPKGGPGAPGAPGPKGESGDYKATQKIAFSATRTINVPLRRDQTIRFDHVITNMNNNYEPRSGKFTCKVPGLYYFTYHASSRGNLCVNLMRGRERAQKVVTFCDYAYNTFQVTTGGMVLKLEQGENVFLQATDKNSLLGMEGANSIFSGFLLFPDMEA
T1 sequence (P02747 29-245 limits assumed, chain 3 of 3): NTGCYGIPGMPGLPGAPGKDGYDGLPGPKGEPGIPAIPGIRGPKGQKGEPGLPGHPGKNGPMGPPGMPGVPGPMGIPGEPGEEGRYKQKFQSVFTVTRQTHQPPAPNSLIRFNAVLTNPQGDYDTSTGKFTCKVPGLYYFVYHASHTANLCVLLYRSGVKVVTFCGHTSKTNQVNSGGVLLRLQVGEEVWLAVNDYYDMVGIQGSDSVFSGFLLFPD

B1: HBC34-V35-MLNS-GAALIE (antibody, human IgG1, lambda)
heavy: ELQLVESGGGWVQPGGSQRLSCAASGRIFRSFYMSWVRQAPGKGLEWVATINQDGSEKLYVDSVKGRFTISRDNAKNSLFLQMNNLRVEDTAVYYCAAWSGNSGGMDVWGQGTTVSVSSASTKGPSVFPLAPSSKSTSGGTAALGCLVKDYFPEPVTVSWNSGALTSGVHTFPAVLQSSGLYSLSSVVTVPSSSLGTQTYICNVNHKPSNTKVDKKVEPKSCDKTHTCPPCPAPELLAGPSVFLFPPKPKDTLMISRTPEVTCVVVDVSHEDPEVKFNWYVDGVEVHNAKTKPREEQYNSTYRVVSVLTVLHQDWLNGKEYKCKVSNKALPLPEEKTISKAKGQPREPQVYTLPPSRDELTKNQVSLTCLVKGFYPSDIAVEWESNGQPENNYKTTPPVLDSDGSFFLYSKLTVDKSRWQQGNVFSCSVLHEALHSHYTQKSLSLSPGK
light: SYELTQPPSVSVSPGQTVSIPCSGDKLGNKNVAWFQHKPGQSPVLVIYEVKYRPSGIPERFSGSNSGNTATLTISGTQAMDEAAYFCQTFDSTTVVFGGGTRLTVLGQPKAAPSVTLFPPSSEELQANKATLVCLISDFYPGAVTVAWKADSSPVKAGVETTTPSKQSNNKYAASSYLSLTPEQWKSHRSYSCQVTHEGSTVEKTVAPTECS
With B1 the “neutralization EC50, HDV engineered to express HBV HBsAg” value [1] was 0.92 ng/mL, the “neutralization EC50, HDV engineered to express HBV HBsAg” value [2] was 2.34 ng/mL and the binding result [3] was “no binding (tested: 3 µg/ml of purified human C1q)”. B1: binds [4]; binds [5]; binds [6].
